According to the nanobody polyreactivity screen of Harvey et al. (2022):

Assay: yeast display, Sf9 membrane polyspecificity reagent, FACS + sequencing; frameworks hold sequencing errors
In short: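 Nanobodies came from a synthetic yeast display library in Saccharomyces cerevisiae BJ5465, induced with galactose for 36–48 hours and stained for 1 hour at 4 °C with 10% biotinylated, detergent-solubilized Sf9 membrane reagent. Cells were enriched on streptavidin microbeads and then FACS-sorted, with low and high (top ~1%) gates set on anti-HA fluorescence for expression and streptavidin fluorescence for reagent binding. Each polyreactivity label reflects the gate a clone came from. Genes were amplified by colony PCR, sequenced by MiSeq 2 × 250 and filtered by CDR length.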

Row | Sequence | polyreactivity (PSR sort gate)
1 | QVQHVESGGGLVQAGGSLRLSCASSGSTFWAYAMGWYRLAPGKERELVATITGSVGGTYYADSVKGRFTISRDNAKNTVYLQMNSLKPEDTAVYYCATDAYVKGVYEISEDRVDYWGQGTQVTVSS | low polyreactivity
2 | QVQHVESGGGLVQAGGSLRLSCDASGLTISWYAMGWYRQAPGKEREMVAAISKRGGSTYYADSVKGRFTISRDNAKNTVYLQMNSLKPEDTAVYYCNARSPYTGWTLDYWGQGTQVTVSS | high polyreactivity
3 | QVQHVESGGGLVQAGGSLRLSCDASGRIFAWYAMGWYRHAPGKERELVASISSGGRTNYADSVKGRFTISRDIAKNTVYLQMNSLKPVDTAVYYCNVAIVWPWYGRWFQEYDYWGQGTQVTVSS | low polyreactivity
4 | QVQHVESGGGLVQAGGSLRLSCPASGSIIYYNTMGWYRQAPGKERELVAGISWGGGRTYYADSVKGRFTISRDNAKNTVYLQMNSLKPEDTAVYYCNAVSKYDYGYWGQGTQVTVSS | high polyreactivity
5 | QVQHVESGGGLVQAGGSLRLSSAASGRIFSWNAMVWYRQAPGKERELVAAITNGGGTYYADSVKGRFTISRDNAKNTVYLQMNSLKPEDTAVYYCNAYRRKLWYPTGMYWGQGTQVTVSS | high polyreactivity
6 | QVQHVESGGGLVQAGGSLRLSSAASGSIFSYNAMGWYRQSPGKERELVAAIRASGGDTYYADSVKGRFTISRDNAKNTVYLQMNSLKPEDTAVYYCAARTYSHHYASHGYWGQGTQVTVSS | low polyreactivity
7 | QVQHVESGGGLVQAGGSLRLTCAATGSTFRDNAMRWYRQAPGKERELVAAIRIGGDGTYYADSVKGRFTISRDNAKNTVYLQMNSLKPEDTAVYYCAVDTEKGWRMYYWGQGTQVTVSS | low polyreactivity
8 | QVQHVESGGGLVQAGGSLRVSCAASGFIFSAYAMGRYRKATGKERELVAAISSGGSTYYADSVKGRFTISRDNAKNTVYLQMNSLKPEDTEVYYCAAVYTGRYRYDYWGQGTHVTVSS | low polyreactivity
9 | QVQHVESGGGLVQAGGSLSLRCAASGSTLPYYAMGGYRPAPGKEREFVAAISSSGGSTYYADSVKGRFTISRDNAKYTVYLQMNSLKPEDTAVYYCNAVLYARQRDRWARYDYWGQGTQVTVSS | high polyreactivity
10 | QVQHVESGGGLVQAGSLRLSCAASGSTFPYNAMGWYREAPGKERELVATISWSGGSTYYADSVKGRFTISRDNAKNTVYLQMNSLKPEDTAVYYCNATYGSSYDYWGQGTQVTVSS | low polyreactivity
11 | QVQHVESGGGLVQAVGSLRLSFAASGSIFRGYAMGGYRPAPGKERELVAAIRYSGARTYYADSVKGRFTISRDNAKNTVYLQMNSLKPEDTAVYYCNARSYSRTHYDYWGQGTQVTVSS | high polyreactivity
12 | QVQHVESGGGLVQEGGSLRLSCAASGITFGRNTMGWYRQAPGKERELVAAIDSGGNTYADSVKGRFTISRDNAKNTVYLQMNSLKPVDTAVYSCAVDGGEFSSYGYWGQGTQVTVSS | low polyreactivity
13 | QVQHVESGGGLVQPGGSLRLSCAASGYTFYANAMGWYRQAPGKEREFVASITWSGGSSYYADSVKGRFTISRDNAKNTVYLHLNSLKPEDTAVYYCAAESWFKYDYWGQGTQVTLSS | low polyreactivity
14 | QVQHVESGGGVVQAGRSLRLRCDASGFILWYYTMGWYRPAPGKERELVAAISRGGTTYYADSVKGRFTISRDNAKKSVYLQMTSLKPEDTAVYYCNAPDNTHGIVLYDYWGQGTQVTVSS | low polyreactivity
15 | QVQHVESGGRLVQAGGSLRLSCAASGRTFPQYAMGWYRQAPGKERELVAAITSGDSTNYSDSVKGRFTISRDNAKNTVYLQMNSLKPEDTAVYYCAAVYYYSKWYTPYEDVYWGQGTQVTVSS | low polyreactivity
16 | QVQHVESGRGLVQAGGILRLSCAASGRIFRMNAMGWYRQATGKERELDAAITWIGGRTYYADSVKGRFTISRDNAKNTVYLQMNSLKPEDTAVYYCAAAYPLDFWFGFEYDYWGQGTQGTVSS | high polyreactivity
17 | QVQHVESGRGLVQAGGSLRLICAASGRTFGRNAMGWYRQAPGQERELVAAITSGGSTSYADSVKGRFTISRDNAKNPVYLQMNSLKPEDTAVYYCRQFSVWGYDYWGQGTQLTVSS | high polyreactivity
18 | QVQHVESGRGLVQAGGSLRLSCAASGITFRYYAMGWYRQAPGKERELVAAISRGTSTKYADSVKGRFTISRDNAKNTVYLQMNSQKPEDTAVYYCAVYGYWSKSDYWGQGTQVTVSS | low polyreactivity
19 | QVQHVESGRGLVQAGGSLRLSCAASGSIFSSYARGWSREAPGKERELVAAISQSGGDTYYADSVKGRFTISRDNAKNTVYLQMKSLKPEDTAVYYCAASVWYYPMDYWGQGTQVTVSS | low polyreactivity
20 | QVQHVESGRGLVQAGGSLRLSCAGSGFIFYKYAMGWYRQAPGKERELVAAITRGGSTNYADSVKGRFTISRDTAKNTVFLQMNSLKPEDTAVYYCAAGNRYGVRQLYQIVTRYYWGQGTQVTVSS | high polyreactivity
21 | QVQHVESGVGLDQAGGSLRLSCAASGSIFYWNAMGWYRQAPGKEREFVATITITTSTNYADSVKGRFTISRDNAKNPVNLQMNSLKPEDTAVYYCNAGAPYRYLDEYNYWGQGTKVTVSS | low polyreactivity

Row | Sequence | polyreactivity (PSR sort gate)
22 | QVQHVESGVGLVQAGGSLRLSCAASGFIFTINAMGWYRQAPGKERELVAAISWSGGRTYYADSVKGRFTISRDNAKNTVYLQMNSLNPEDTAVYYCNAYPATQYDYESWGQGTQGTVSS | high polyreactivity
23 | QVQHVESGVGLVQAGGSLRLSCAASGRIFVFYTMGWYIQAPGKERELVARISSGGSKNYADSVKGRFTISRDNAKNTVYLQMNSLKPEDTAVYYCNAAYARGRAGYYYWGQGTQVTVSS | high polyreactivity
24 | QVQHVESRGGLVQAGGSLRLSCAASGSTFDGNAMGWYRQAPGTETELVAGISYRGGSTYYADSVKGRFTISRDYAKNSVYLQMNRLKPEDTAVYYCAADDYVYWLFDYWGQGTQVTVSS | low polyreactivity
25 | QVQHVESVGGLVQAGGSLRLSCAASVSTFYFYAMGWYRQAPGKERELVAVISSGGRTYYADSVKGRFTISRDKAKNTVYLQMNSLKPEDTAVYYCAASWPSSLTYYYWGQGTQVTVSS | low polyreactivity
26 | QVQHVESVGRLVQAGGSLRLSCAASGFTFKYYAMGWYRQAPGKERELVAVISSSGGSTYYADSVKGRFTISRDNAKNTVYLQMNSLKPEDTAVYYCAAELVYRYFVKDADDYWGQGTQVTVSS | low polyreactivity
27 | QVQHVETGGGLVQAGGSHRLSCAASGLIFDYNAMGWYTQAPRKERELDADISSGGSTYYADSVKGRFTISSDNGKNSVYLQMNSLKTEDTAVYYCATRRQAQYTRYYGSRQFYYWGQGTQVTVSS | high polyreactivity
28 | QVQHVETGGGLVQAGGSLRLSCAASGLAFAMGWYSQAPGTERELVASITGSGDSTYYADSVKGRFTISRDNAKNTVYLQMNSQKPEDTAVYYCGARTYYNYAPRYYYWGQGTQVTVSS | low polyreactivity
29 | QVQHVQSGGGLVQAGGSLRLSCAASGYIFWSYEIGGYRQAPGKERELDATITSGDSTYYADSVKGRFTISRDNAKNTVYLQMKSLKPEDTALDYCAACTYYRLTYWLREYDYSGQGTQVTVSS | low polyreactivity
30 | QVQIEESGGGLVQAGGSLRLSCAASGRTFNFYAMGWYRQATGKERELVAAISHGDSTYYADSVKGRFTISRDNAKNTVYLQMNSLKPEDTAVYYCAASQKYYLRKYEYWGQGTQVTVSS | low polyreactivity
31 | QVQIEESGGGLVQAGRSHRLSCAASGSTFGSYAMRWYRQAPGKERELVAAISASGGSTYYADSVKGRFTISRDNAKHTVYLQMNSLKPEDTAVFYCATVYYSARYNYWGQGTQVTVSS | high polyreactivity
32 | QVQIGESGGGLVQAGGSLRLSCAASGSTFWRYAMGWDRPATGKECELVASITGGGGSTYYADSVKGRFTISRDNAKNTVDLQMHRLKPEDNAVYSCNARRYYRVDSYDYWGQGTQVTVSS | high polyreactivity
33 | QVQILESGGGLVQAGGSLRLSCAASGFTFTGYALGWYSQAPGKERELVAAINARATSTYYADSVKGRFTISRDNAMNHVYLQIKSLIPEDTAVYFCAATFYRRYVDLGYWGQCTQVTVSS | high polyreactivity
34 | QVQIVDSGGGLVQAGGSLRLSCAASGSTFIPNDMGWYRQAPGKERELVAAITVSGDDTYYADSVKGRFTISRDNAKNTVYIQMNSLKPDDTAVYYCNVDDPFYSGVVVFDYWGQGTLVTVSS | low polyreactivity
35 | QVQIVESCGGLVQAGGSHRLSCAASGSTFVPNAMGWYRQAPGKEREFVAAISRIGGTYYADSVKGRFTISRDNEKNTVYLLMNCLKPEDNAVYYCAAEPSSVGYHVEYDYWGQGTQVTVSS | low polyreactivity
36 | QVQIVESGAGLVQAGRSLRLSCAASGIIFHRYAMGWYRQAPGKERELVAAITWSGDSTYYADSVKGRFTISRDNAKNTVYLQMNSLKPEDTAVYYFWEYDYWGQGTQVTVSS | low polyreactivity
37 | QVQIVESGAGLVQPGGSLRLSCAASGRTFPLYAMGWYRPAPGKEREFVAAITVSGVSTSYADSVKGRFTISRDNAKNTVYLQMNSLKPEDTAVYYCAADYYIWTYWDVYYWGQGTQVTVSS | high polyreactivity
38 | QVQIVESGGCLVQAGGSLRLSCAASGFTLFLNSMGWYRQAPGQERELVAAISKSDGITYYADSVKGRFSISRDNAKNTVYLKMNSLKPEDTAVYYCNADARGWSVWDPGEYNYWGQGTQVNVSS | low polyreactivity
39 | QVQIVESGGGKVQEGGSLRLSCAASGITFTWYDMGWYRQAPGKERELVAAITTDGGSTYYADSVKGRFTISRDNAKNTVYLQINSLKPEDTAVYYCAAAGYVPFPVVYEYWGQGTQVTVSS | high polyreactivity
40 | QVQIVESGGGLFQAGGSLRISCAASGRPFAPNAMGWYRQAPAKERELVAAITGRGGRTYYADSVKGRFTISRDNANNTVYLQMNSEKPADTAVYYCAYFIAPWGLDFWGQGTEVTVSS | high polyreactivity
41 | QVQIVESGGGLVHAGGSLRLSCAASGRNIPPYVIAWYRQAPGKEREMVAAMSWRGGNTYYADSVKGRFTISRDNAKNTVYLQMNSLKPEDTAVYYCAAKAYRRYSIPPYGYWGQGTQVTVSW | low polyreactivity
